In publication PMC5021340, “The Involvement of Mig1 from Xanthophyllomyces dendrorhous in Catabolic Repression: An Active Mechanism Contributing to the Regulation of Carotenoid Production”:

Target: Mig1 (Xanthophyllomyces dendrorhous, UniProt A0A1C9UL02 1-863)
Experiment: EMSA; poly(dI-dC); 20 mM HEPES pH 7.9, 50 mM KCl, 1 mM DTT, 0.1 mM EDTA, 5% glycerol (+2.5%), 200 ug/ml BSA, 50 ng/ul poly(dI-dC), 0.05% NP-40, 20 fmol DNA, 10 ug Mig1 in 20 ul, room temperature 20 min
Conditions: protein: recombinant; (pET-TEV), removed by TEV protease; label: 5' biotin; blunt

Chain of Mig1 (A0A1C9UL02 entry or part of it): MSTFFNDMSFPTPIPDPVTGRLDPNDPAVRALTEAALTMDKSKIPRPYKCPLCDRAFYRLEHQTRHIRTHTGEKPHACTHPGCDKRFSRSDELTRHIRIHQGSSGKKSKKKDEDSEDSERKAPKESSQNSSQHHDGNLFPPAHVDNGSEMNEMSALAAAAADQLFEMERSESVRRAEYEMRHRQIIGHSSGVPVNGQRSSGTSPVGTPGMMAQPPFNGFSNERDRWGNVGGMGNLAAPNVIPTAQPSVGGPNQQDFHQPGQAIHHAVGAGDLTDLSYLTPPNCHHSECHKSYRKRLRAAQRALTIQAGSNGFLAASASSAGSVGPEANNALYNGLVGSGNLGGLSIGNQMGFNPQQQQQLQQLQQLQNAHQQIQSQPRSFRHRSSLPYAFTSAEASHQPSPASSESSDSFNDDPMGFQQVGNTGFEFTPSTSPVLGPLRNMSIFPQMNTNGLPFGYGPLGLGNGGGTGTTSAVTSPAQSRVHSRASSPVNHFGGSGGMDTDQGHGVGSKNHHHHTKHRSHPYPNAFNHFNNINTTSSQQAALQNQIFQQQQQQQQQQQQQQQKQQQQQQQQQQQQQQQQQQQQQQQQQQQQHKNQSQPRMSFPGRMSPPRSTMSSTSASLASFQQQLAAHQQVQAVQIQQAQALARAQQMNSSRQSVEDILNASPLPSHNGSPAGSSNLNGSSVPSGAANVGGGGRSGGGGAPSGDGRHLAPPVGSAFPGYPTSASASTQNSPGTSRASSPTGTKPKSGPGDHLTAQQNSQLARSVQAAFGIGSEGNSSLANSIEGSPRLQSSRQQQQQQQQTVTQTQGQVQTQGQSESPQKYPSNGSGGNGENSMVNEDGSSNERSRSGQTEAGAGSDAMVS

B1: grg2 box A (-348) 54 bp (dsDNA)
DNA 1: GAGGTATATGCGTTCCGCGAACTGCGGAGATGTGACGTCACATCTCGTCACAGC
DNA 2: GCTGTGACGAGATGTGACGTCACATCTCCGCAGTTCGCGGAACGCATATACCTC
B1: binds.
